Measured values from publication PMC11877715, “NONO regulates m^5C modification and alternative splicing of PTEN mRNAs to drive gastric cancer progression” (Journal of Experimental & Clinical Cancer Research : CR, 2025).

Biological target: T1, purified HA-NSUN2 (human, UniProt Q08J23 1-767)
T1 construct: NSUN2, human, in p-GEX-4T-1; The plasmid is called GST-HA-NSUN2, the protein in the assay HA-NSUN2; also called GST-HA-NSUN2; HA-NSUN2 fusion protein; source: E. coli, purified (prepared 'as described previously')
T1 sequence (Q08J23 whole entry, the tested form may be a part): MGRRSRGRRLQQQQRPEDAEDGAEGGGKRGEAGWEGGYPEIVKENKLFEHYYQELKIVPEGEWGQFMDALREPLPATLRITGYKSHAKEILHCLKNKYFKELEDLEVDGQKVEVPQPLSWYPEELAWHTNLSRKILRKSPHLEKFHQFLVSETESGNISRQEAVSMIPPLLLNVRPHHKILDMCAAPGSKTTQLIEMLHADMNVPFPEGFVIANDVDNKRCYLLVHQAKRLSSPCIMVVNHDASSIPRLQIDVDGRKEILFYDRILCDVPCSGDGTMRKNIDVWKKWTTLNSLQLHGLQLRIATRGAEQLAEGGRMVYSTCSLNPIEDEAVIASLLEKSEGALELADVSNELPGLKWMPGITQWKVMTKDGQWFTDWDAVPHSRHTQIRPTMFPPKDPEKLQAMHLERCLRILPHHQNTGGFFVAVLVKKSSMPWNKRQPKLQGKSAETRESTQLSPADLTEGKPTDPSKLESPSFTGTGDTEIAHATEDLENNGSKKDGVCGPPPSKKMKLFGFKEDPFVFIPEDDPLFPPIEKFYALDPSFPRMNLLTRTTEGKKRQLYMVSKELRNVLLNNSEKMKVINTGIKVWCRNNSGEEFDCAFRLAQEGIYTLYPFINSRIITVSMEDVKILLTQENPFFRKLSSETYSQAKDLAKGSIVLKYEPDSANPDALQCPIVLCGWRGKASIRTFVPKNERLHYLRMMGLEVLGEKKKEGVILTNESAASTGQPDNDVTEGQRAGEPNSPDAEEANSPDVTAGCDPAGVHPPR
Experiment: pull-down; Called GST pull-down; about 100 µg GST-Flag-NONO and HA-NSUN2 incubated overnight with anti-Flag antibody at 4 °C, protein A/G magnetic beads 1 h at room temperature, low-pH elution, Western blot
Details: both partners purified

- binding result: binds
B1: GST-Flag-NONO (natural protein, human, UniProt Q15233 1-471, looked up)
chain: MQSNKTFNLEKQNHTPRKHHQHHHQQQHHQQQQQQPPPPPIPANGQQASSQNEGLTIDLKNFRKPGEKTFTQRSRLFVGNLPPDITEEEMRKLFEKYGKAGEVFIHKDKGFGFIRLETRTLAEIAKVELDNMPLRGKQLRVRFACHSASLTVRNLPQYVSNELLEEAFSVFGQVERAVVIVDDRGRPSGKGIVEFSGKPAARKALDRCSEGSFLLTTFPRPVTVEPMDQLDDEEGLPEKLVIKNQQFHKEREQPPRFAQPGSFEYEYAMRWKALIEMEKQQQDQVDRNIKEAREKLEMEMEAARHEHQVMLMRQDLMRRQEELRRMEELHNQEVQKRKQLELRQEEERRRREEEMRRQQEEMMRRQQEGFKGTFPDAREQEIRMGQMAMGGAMGINNRGAMPPAPVPAGTPAPPGPATMMPDGTLGLTPPTTERFGQAATMEGIGAIGGTPPAFNRAAPGAEFAPNKRRRY
notes: NONO, human, FL, in p-GEX-4T-1; also called GST-tagged Flag-NONO; FLAG-NONO-FL in p-GEX-4T-1; source: E. coli, purified (prepared 'as described previously')
